In assay [1] the target is T1, human amylin 3(a) receptor (human calcitonin receptor + RAMP-3) (human, UniProt P30988 25-474; O60896 24-148, limits assumed).
T1 sequence (looked up) 1: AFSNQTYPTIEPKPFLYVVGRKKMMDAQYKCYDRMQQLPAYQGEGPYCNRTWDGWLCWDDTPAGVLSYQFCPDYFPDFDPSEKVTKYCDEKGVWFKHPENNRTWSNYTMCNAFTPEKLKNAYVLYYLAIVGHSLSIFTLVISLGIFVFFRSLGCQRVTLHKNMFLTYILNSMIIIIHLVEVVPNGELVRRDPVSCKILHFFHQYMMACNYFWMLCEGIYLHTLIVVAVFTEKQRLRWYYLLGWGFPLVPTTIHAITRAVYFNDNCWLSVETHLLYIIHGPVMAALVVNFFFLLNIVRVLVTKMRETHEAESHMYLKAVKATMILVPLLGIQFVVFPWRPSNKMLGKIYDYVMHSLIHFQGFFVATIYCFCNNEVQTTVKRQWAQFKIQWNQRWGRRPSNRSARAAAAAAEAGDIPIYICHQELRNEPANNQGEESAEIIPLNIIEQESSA
T1 sequence (looked up) 2: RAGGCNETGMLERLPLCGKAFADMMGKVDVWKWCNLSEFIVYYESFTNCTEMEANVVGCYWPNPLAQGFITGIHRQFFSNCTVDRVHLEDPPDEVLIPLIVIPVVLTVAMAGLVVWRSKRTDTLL
Kind of assay: cell-based or functional assay.

Assay [2] deals with T2, human calcitonin receptor (human, UniProt P30988 25-474).
T2 sequence (looked up): T1 sequence (looked up) 1
Description: cell-based or functional assay.

Numbered stars: 1 amine (or outer) side, 2 acyl side, 3 side chain; on linkers, the order of the positions; unused ones are H or OH. Bridge positions count the residues as written; N and C are the ends. * marks the point of attachment. C20 diacid = O=C(O)CCCCCCCCCCCCCCCCCCC(=O)*; γGlu = O=C(O)[C@H](CCC(=O)[*:2])N[*:1]

B1: N^α1-[(4S)-4-carboxy-4-(19-carboxynonadecanoylamino)butanoyl]-[Asp14,Arg17,Pro21,Pro27,Pro37]-h-amylin (peptide)
peptide: {C20 diacid-γGlu}-KCNTATCATQRLADFLRHSSPNFGAIPSSTNVGSNTP-NH2
modifications: disulfide 2-7
SMILES: CC[C@H](C)[C@H](NC(=O)[C@H](C)NC(=O)CNC(=O)[C@H](Cc1ccccc1)NC(=O)[C@H](CC(N)=O)NC(=O)[C@@H]1CCCN1C(=O)[C@H](CO)NC(=O)[C@H](CO)NC(=O)[C@H](Cc1c[nH]cn1)NC(=O)[C@H](CCCNC(=N)N)NC(=O)[C@H](CC(C)C)NC(=O)[C@H](Cc1ccccc1)NC(=O)[C@H](CC(=O)O)NC(=O)[C@H](C)NC(=O)[C@H](CC(C)C)NC(=O)[C@H](CCCNC(=N)N)NC(=O)[C@H](CCC(N)=O)NC(=O)[C@@H](NC(=O)[C@H](C)NC(=O)[C@@H]1CSSC[C@H](NC(=O)[C@H](CCCCN)NC(=O)CC[C@H](NC(=O)CCCCCCCCCCCCCCCCCCC(=O)O)C(=O)O)C(=O)N[C@@H](CC(N)=O)C(=O)N[C@@H]([C@@H](C)O)C(=O)N[C@@H](C)C(=O)N[C@@H]([C@@H](C)O)C(=O)N1)[C@@H](C)O)C(=O)N1CCC[C@H]1C(=O)N[C@@H](CO)C(=O)N[C@@H](CO)C(=O)N[C@H](C(=O)N[C@@H](CC(N)=O)C(=O)N[C@H](C(=O)NCC(=O)N[C@@H](CO)C(=O)N[C@@H](CC(N)=O)C(=O)N[C@H](C(=O)N1CCC[C@H]1C(N)=O)[C@@H](C)O)C(C)C)[C@@H](C)O
notes: also called compound 10
B1: the “hAmylin-R funct. EC50 (pM)” value in assay [1] was 72 pM. Moreover, the “Ratio hCT/hAmylin funct.” value in assay [2] is 1.

B2: N^α1-[(4S)-4-carboxy-4-(19-carboxynonadecanoylamino)butanoyl]-[Glu14,Arg17,Pro21,Pro27,Asp35,Pro37]-h-amylin (peptide)
peptide: {C20 diacid-γGlu}-KCNTATCATQRLAEFLRHSSPNFGAIPSSTNVGSDTP-NH2
modifications: disulfide 2-7
SMILES: CC[C@H](C)[C@H](NC(=O)[C@H](C)NC(=O)CNC(=O)[C@H](Cc1ccccc1)NC(=O)[C@H](CC(N)=O)NC(=O)[C@@H]1CCCN1C(=O)[C@H](CO)NC(=O)[C@H](CO)NC(=O)[C@H](Cc1c[nH]cn1)NC(=O)[C@H](CCCNC(=N)N)NC(=O)[C@H](CC(C)C)NC(=O)[C@H](Cc1ccccc1)NC(=O)[C@H](CCC(=O)O)NC(=O)[C@H](C)NC(=O)[C@H](CC(C)C)NC(=O)[C@H](CCCNC(=N)N)NC(=O)[C@H](CCC(N)=O)NC(=O)[C@@H](NC(=O)[C@H](C)NC(=O)[C@@H]1CSSC[C@H](NC(=O)[C@H](CCCCN)NC(=O)CC[C@H](NC(=O)CCCCCCCCCCCCCCCCCCC(=O)O)C(=O)O)C(=O)N[C@@H](CC(N)=O)C(=O)N[C@@H]([C@@H](C)O)C(=O)N[C@@H](C)C(=O)N[C@@H]([C@@H](C)O)C(=O)N1)[C@@H](C)O)C(=O)N1CCC[C@H]1C(=O)N[C@@H](CO)C(=O)N[C@@H](CO)C(=O)N[C@H](C(=O)N[C@@H](CC(N)=O)C(=O)N[C@H](C(=O)NCC(=O)N[C@@H](CO)C(=O)N[C@@H](CC(=O)O)C(=O)N[C@H](C(=O)N1CCC[C@H]1C(N)=O)[C@@H](C)O)C(C)C)[C@@H](C)O
notes: also called compound 11
With B2, in assay [1], the “hAmylin-R funct. EC50 (pM)” value stood at 120 pM. Moreover, the “Ratio hCT/hAmylin funct.” value in assay [2] stood at 0.9.
